Test system: Escherichia coli TOP10
Experiment: shrunken log2 fold change of peptide-encoding DNA abundance (4.5 h post-induction vs induction); higher = less antimicrobial activity (less host growth inhibition)
Settings: time post-induction: 4.5 h; library: site-saturation at positions 5, 18, 19, 20
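Also: peptides expressed intracellularly from a pBAD plasmid library in pooled LB shake-flask culture, induced with 0.3% L-arabinose, DNA abundance read by NGS, three biological replicates, DESeq2 with apeglm shrinkage.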

| Sequence | shrunken log2 fold change |
| --- | --- |
| RRIRERPPRLPRPRPRPCGDPRP | -0.231 |
| RRIRARPPRLPRPRPRPLQDPRP | 0.25 |
| RRIRNRPPRLPRPRPRPWLQPRP | -0.0113 |
| RRIRHRPPRLPRPRPRPMECPRP | -0.427 |
| RRIRHRPPRLPRPRPRPPPWPRP | 0.446 |
| RRIRSRPPRLPRPRPRPPWWPRP | 0.828 |
| RRIRPRPPRLPRPRPRPNATPRP | 0.323 |
| RRIRTRPPRLPRPRPRPHPSPRP | 0.00449 |
| RRIRHRPPRLPRPRPRPSCDPRP | -0.336 |
| RRIRMRPPRLPRPRPRPIAIPRP | 0.226 |
| RRIRNRPPRLPRPRPRPKGTPRP | 0.118 |
| RRIRSRPPRLPRPRPRPGHGPRP | -0.254 |
| RRIRVRPPRLPRPRPRPRAPPRP | 0.831 |
| RRIRARPPRLPRPRPRPLTWPRP | 0.272 |
| RRIRERPPRLPRPRPRPMYQPRP | -0.0801 |
| RRIRGRPPRLPRPRPRPIMAPRP | 0.401 |
| RRIRGRPPRLPRPRPRPVGCPRP | 0.74 |
| RRIRPRPPRLPRPRPRPIFYPRP | -0.102 |
| RRIRIRPPRLPRPRPRPALVPRP | 0.228 |
| RRIRSRPPRLPRPRPRPDRKPRP | -0.0693 |
| RRIRKRPPRLPRPRPRPILPPRP | 2.29 |
| RRIRGRPPRLPRPRPRPYNNPRP | -0.321 |
| RRIRWRPPRLPRPRPRPMPPPRP | 0.411 |
| RRIRMRPPRLPRPRPRPRMRPRP | 1.41 |
| RRIRHRPPRLPRPRPRPQYVPRP | -0.213 |

| Sequence | shrunken log2 fold change |
| --- | --- |
| RRIRKRPPRLPRPRPRPMIFPRP | -0.132 |
| RRIRNRPPRLPRPRPRPACEPRP | 0.172 |
| RRIRKRPPRLPRPRPRPPYFPRP | -0.101 |
| RRIRYRPPRLPRPRPRPYWGPRP | -0.0899 |
| RRIRERPPRLPRPRPRPHEPPRP | -0.0545 |
| RRIRNRPPRLPRPRPRPDAGPRP | 0.391 |
| RRIRLRPPRLPRPRPRPIWEPRP | 0.0805 |
| RRIRHRPPRLPRPRPRPYTGPRP | -0.304 |
| RRIRERPPRLPRPRPRPQACPRP | -0.0746 |
| RRIRWRPPRLPRPRPRPIDRPRP | -0.156 |
| RRIRARPPRLPRPRPRPEMTPRP | 1.23 |
| RRIRPRPPRLPRPRPRPHPQPRP | 0.238 |
| RRIRFRPPRLPRPRPRPWMFPRP | -0.451 |
| RRIRVRPPRLPRPRPRPHLMPRP | -0.36 |
| RRIRSRPPRLPRPRPRPCNVPRP | -0.175 |
| RRIRKRPPRLPRPRPRPWAVPRP | 0.192 |
| RRIRNRPPRLPRPRPRPKHEPRP | 0.13 |
| RRIRMRPPRLPRPRPRPFHDPRP | -0.14 |
| RRIRERPPRLPRPRPRPLARPRP | 0.179 |
| RRIRVRPPRLPRPRPRPRVQPRP | 0.328 |
| RRIRCRPPRLPRPRPRPTGWPRP | 0.314 |
| RRIRARPPRLPRPRPRPPMPPRP | 0.405 |
| RRIRERPPRLPRPRPRPKSQPRP | -0.0879 |
| RRIRSRPPRLPRPRPRPAILPRP | -0.313 |
| RRIRMRPPRLPRPRPRPIWKPRP | 0.00523 |

| Sequence | shrunken log2 fold change |
| --- | --- |
| RRIRPRPPRLPRPRPRPIIRPRP | -0.168 |
| RRIRMRPPRLPRPRPRPSRSPRP | 0.902 |
| RRIRTRPPRLPRPRPRPFYCPRP | -0.505 |
| RRIRTRPPRLPRPRPRPTNMPRP | -0.409 |
| RRIRFRPPRLPRPRPRPSFMPRP | -0.393 |
| RRIRDRPPRLPRPRPRPIDLPRP | -0.0817 |
| RRIRIRPPRLPRPRPRPETPPRP | 0.207 |
| RRIRWRPPRLPRPRPRPSAFPRP | 0.0981 |
| RRIRKRPPRLPRPRPRPYQVPRP | 0.0805 |
| RRIRFRPPRLPRPRPRPLKNPRP | -0.193 |
| RRIRYRPPRLPRPRPRPYWPPRP | -0.0534 |
| RRIRDRPPRLPRPRPRPCWTPRP | 0.122 |
| RRIRLRPPRLPRPRPRPFRWPRP | 0.202 |
| RRIRLRPPRLPRPRPRPQRVPRP | 0.0215 |
| RRIRGRPPRLPRPRPRPLARPRP | 0.91 |
| RRIRPRPPRLPRPRPRPHYQPRP | -0.417 |
| RRIRFRPPRLPRPRPRPKHMPRP | -0.52 |
| RRIRSRPPRLPRPRPRPGHLPRP | -0.236 |
| RRIRDRPPRLPRPRPRPKQLPRP | 0.217 |
| RRIRTRPPRLPRPRPRPWHKPRP | -0.168 |
| RRIRGRPPRLPRPRPRPMMFPRP | 0.69 |
| RRIRSRPPRLPRPRPRPQIKPRP | 0.0447 |
| RRIRARPPRLPRPRPRPYMQPRP | -0.53 |
| RRIRKRPPRLPRPRPRPPRFPRP | 0.733 |
| RRIRIRPPRLPRPRPRPLLRPRP | -0.239 |

| Sequence | shrunken log2 fold change |
| --- | --- |
| RRIRDRPPRLPRPRPRPEYDPRP | 0.00968 |
| RRIRIRPPRLPRPRPRPINFPRP | -0.346 |
| RRIRWRPPRLPRPRPRPYNIPRP | -0.243 |
| RRIRYRPPRLPRPRPRPAFPPRP | -0.139 |
| RRIRTRPPRLPRPRPRPDMTPRP | -0.0206 |
| RRIRYRPPRLPRPRPRPRQNPRP | 0.345 |
| RRIRDRPPRLPRPRPRPEWAPRP | 0.746 |
| RRIRVRPPRLPRPRPRPGVHPRP | 0.107 |
| RRIRPRPPRLPRPRPRPVRYPRP | 0.346 |
| RRIRIRPPRLPRPRPRPRLIPRP | -0.199 |
| RRIRERPPRLPRPRPRPYMLPRP | -1.42 |
| RRIRYRPPRLPRPRPRPPRDPRP | 0.102 |
| RRIRFRPPRLPRPRPRPHIYPRP | -1.22 |
| RRIRQRPPRLPRPRPRPDWPPRP | 0.416 |
| RRIRHRPPRLPRPRPRPGHQPRP | -0.149 |
| RRIRMRPPRLPRPRPRPHITPRP | -0.374 |
| RRIRYRPPRLPRPRPRPQDAPRP | -0.215 |
| RRIRYRPPRLPRPRPRPVWCPRP | -0.0399 |
| RRIRRRPPRLPRPRPRPYTQPRP | -0.141 |
| RRIRERPPRLPRPRPRPWNYPRP | -0.00131 |
| RRIRNRPPRLPRPRPRPNYSPRP | -0.364 |
| RRIRGRPPRLPRPRPRPIKGPRP | -0.0627 |
| RRIRMRPPRLPRPRPRPHETPRP | -0.00213 |
| RRIRTRPPRLPRPRPRPKIPPRP | -0.21 |
| RRIRCRPPRLPRPRPRPVIVPRP | -0.208 |

| Sequence | shrunken log2 fold change |
| --- | --- |
| RRIRYRPPRLPRPRPRPHQYPRP | -0.402 |
| RRIRGRPPRLPRPRPRPTPGPRP | 0.971 |
| RRIRSRPPRLPRPRPRPKPTPRP | 0.174 |
| RRIRWRPPRLPRPRPRPHIAPRP | 0.0545 |
| RRIRFRPPRLPRPRPRPIRMPRP | -0.191 |
| RRIRFRPPRLPRPRPRPLGTPRP | 0.0158 |
| RRIRWRPPRLPRPRPRPLTHPRP | -0.00362 |
| RRIRNRPPRLPRPRPRPKVPPRP | -0.129 |
| RRIRERPPRLPRPRPRPHGCPRP | -0.00136 |
| RRIRHRPPRLPRPRPRPRLDPRP | -0.0149 |
| RRIRCRPPRLPRPRPRPGGYPRP | 0.0874 |
| RRIRFRPPRLPRPRPRPFAGPRP | 0.0728 |
| RRIRLRPPRLPRPRPRPTINPRP | -0.524 |
| RRIRQRPPRLPRPRPRPACKPRP | -0.0465 |
| RRIRMRPPRLPRPRPRPNHMPRP | -0.01 |
| RRIRPRPPRLPRPRPRPNNSPRP | -0.488 |
| RRIRWRPPRLPRPRPRPMQRPRP | 0.667 |
| RRIRQRPPRLPRPRPRPLEGPRP | -0.0228 |
| RRIRHRPPRLPRPRPRPEMTPRP | 0.0257 |
| RRIRCRPPRLPRPRPRPGYNPRP | -0.88 |
| RRIRFRPPRLPRPRPRPCVLPRP | -0.401 |
| RRIRIRPPRLPRPRPRPKFSPRP | -0.244 |
| RRIRLRPPRLPRPRPRPYFGPRP | -0.218 |
| RRIRGRPPRLPRPRPRPAMTPRP | 1.48 |
| RRIRWRPPRLPRPRPRPVRSPRP | 0.239 |

| Sequence | shrunken log2 fold change |
| --- | --- |
| RRIRHRPPRLPRPRPRPQVKPRP | -1.6 |
| RRIRKRPPRLPRPRPRPKRCPRP | 0.309 |
| RRIRWRPPRLPRPRPRPIAQPRP | 0.582 |
| RRIRWRPPRLPRPRPRPVQRPRP | 0.257 |
| RRIRFRPPRLPRPRPRPSWTPRP | -0.561 |
| RRIRNRPPRLPRPRPRPSDDPRP | -0.0915 |
| RRIRDRPPRLPRPRPRPTRTPRP | 0.246 |
| RRIRCRPPRLPRPRPRPHGPPRP | 0.0798 |
| RRIRNRPPRLPRPRPRPCAMPRP | -0.132 |
| RRIRGRPPRLPRPRPRPLSCPRP | 0.276 |
| RRIRARPPRLPRPRPRPALSPRP | 0.628 |
| RRIRCRPPRLPRPRPRPAMSPRP | 0.0552 |
| RRIRERPPRLPRPRPRPTLEPRP | 0.034 |
| RRIRERPPRLPRPRPRPANIPRP | -0.465 |
| RRIRKRPPRLPRPRPRPYKMPRP | -0.47 |
| RRIRERPPRLPRPRPRPDKSPRP | -1.19 |
| RRIRHRPPRLPRPRPRPVKQPRP | -0.0982 |
| RRIRQRPPRLPRPRPRPVMCPRP | -0.119 |
| RRIRQRPPRLPRPRPRPSWTPRP | -0.15 |
| RRIRWRPPRLPRPRPRPHPMPRP | 0.408 |
| RRIRQRPPRLPRPRPRPIQIPRP | -0.105 |
| RRIRWRPPRLPRPRPRPQKSPRP | 0.0128 |
| RRIRKRPPRLPRPRPRPRCYPRP | -0.181 |
| RRIRLRPPRLPRPRPRPRCNPRP | -0.534 |
| RRIRQRPPRLPRPRPRPNECPRP | 0.033 |

Reference: the supplement of paper PMC9112550, “Optimization of the antimicrobial peptide Bac7 by deep mutational scanning” (BMC Biology, 2022)
